This is an account of results in US20200002436A1 (DRAGONFLY THERAPEUTICS, published 2020).

What all share (experiment): ELISA on coated NKG2D-Fc;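 note: titrated NKG2D binders added to plates coated with human, mouse or cynomolgus NKG2D ectodomain–human IgG1 Fc fusions, detected by HRP anti-human kappa antibody with TMB, absorbance at 450 nm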
For assay [1], the target named is T1, cynomolgus recombinant NKG2D-Fc (cynomolgus; human, UniProt P61252 73-216).
T1 construct: extracellular domain; also called cynomolgus NKG2D-Fc; not shown: human IgG1 Fc domain
T1 sequence (looked up): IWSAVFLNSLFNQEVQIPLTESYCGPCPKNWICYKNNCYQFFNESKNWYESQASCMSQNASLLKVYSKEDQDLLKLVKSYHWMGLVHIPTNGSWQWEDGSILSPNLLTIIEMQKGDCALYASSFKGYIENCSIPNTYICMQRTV

In assay [2] the target is T2, human recombinant NKG2D-Fc (human, UniProt P26718 73-216).
T2 construct: extracellular domain; also called recombinant human NKG2D-Fc; NKG2D-Fc fusion protein; not shown: human IgG1 Fc domain
T2 sequence (looked up): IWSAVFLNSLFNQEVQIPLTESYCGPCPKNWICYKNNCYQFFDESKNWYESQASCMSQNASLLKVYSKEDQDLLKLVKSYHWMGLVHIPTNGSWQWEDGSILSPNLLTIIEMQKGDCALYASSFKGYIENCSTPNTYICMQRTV

Assay [3] deals with T3, mouse recombinant NKG2D-Fc (mouse; human, UniProt O54709 90-232).
T3 construct: extracellular domain; also called recombinant mouse NKG2D-Fc; Mouse NKG2D-Fc-biotin; not shown: human IgG1 Fc domain
T3 sequence (looked up): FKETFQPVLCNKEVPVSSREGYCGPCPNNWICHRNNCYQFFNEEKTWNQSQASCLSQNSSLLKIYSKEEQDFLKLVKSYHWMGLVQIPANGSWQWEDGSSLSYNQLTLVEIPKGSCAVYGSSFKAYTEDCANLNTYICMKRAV

B1: ADI-27727 (antibody, V domains shown)
VH: QVQLVQSGAEVKKPGSSVKVSCKASGGTFSSYAISWVRQAPGQGLEWMGGIIPIFGTANYAQKFQGRVTITADESTSTAYMELSSLRSEDTAVYYCARGDSSIRHAYYYYGMDVWGQGTTVTVSS
VL: not shown
For B1, the binding result in assay [1], in assay [2] and in assay [3] was “binds” in each case.

B2: ADI-27705 (antibody, V domains shown)
VH: QVQLQQWGAGLLKPSETLSLTCAVYGGSFSGYYWSWIRQPPGKGLEWIGEIDHSGSTNYNPSLKSRVTISVDTSKNQFSLKLSSVTAADTAVYYCARARGPWSFDPWGQGTLVTVSS
VL: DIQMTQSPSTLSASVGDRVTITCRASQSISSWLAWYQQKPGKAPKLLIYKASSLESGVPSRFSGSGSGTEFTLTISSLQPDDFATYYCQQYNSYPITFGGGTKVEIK
For the molecule B2, the binding result in assay [1], in assay [2] and in assay [3] was “binds” throughout.

B3: ADI-29403 (antibody, V domains shown)
VH: QVQLQQWGAGLLKPSETLSLTCAVYGGSFSGYYWSWIRQPPGKGLEWIGEIDHSGSTNYNPSLKSRVTISVDTSKNQFSLKLSSVTAADTAVYYCARARGPWSFDPWGQGTLVTVSS
VL: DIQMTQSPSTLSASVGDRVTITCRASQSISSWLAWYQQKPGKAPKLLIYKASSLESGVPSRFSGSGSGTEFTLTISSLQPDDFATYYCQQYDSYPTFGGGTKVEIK
On to B3, for which the binding result in assay [1], in assay [2] and in assay [3] was “binds” each time.

B4: ADI-29429 (antibody, V domains shown)
VH: QVQLQQWGAGLLKPSETLSLTCAVYGGSFSGYYWSWIRQPPGKGLEWIGEIDHSGSTNYNPSLKSRVTISVDTSKNQFSLKLSSVTAADTAVYYCARARGPWSFDPWGQGTLVTVSS
VL: DIQMTQSPSTLSASVGDRVTITCRASQSIGSWLAWYQQKPGKAPKLLIYKASSLESGVPSRFSGSGSGTEFTLTISSLQPDDFATYYCQQYELYSYTFGGGTKVEIK
Consider B4, for which the binding result in assay [1], in assay [2] and in assay [3] was “binds” throughout.

B5: ADI-29419 (antibody, V domains shown)
VH: QVQLQQWGAGLLKPSETLSLTCAVYGGSFSGYYWSWIRQPPGKGLEWIGEIDHSGSTNYNPSLKSRVTISVDTSKNQFSLKLSSVTAADTAVYYCARARGPWSFDPWGQGTLVTVSS
VL: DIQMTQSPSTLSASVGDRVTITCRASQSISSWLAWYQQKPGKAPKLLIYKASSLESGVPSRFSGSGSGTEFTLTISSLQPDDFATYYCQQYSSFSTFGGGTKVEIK
In the case of B5, the binding result in assay [1], in assay [2] and in assay [3] was “binds” throughout.

B6: ADI-29407 (antibody, V domains shown)
VH: QVQLQQWGAGLLKPSETLSLTCAVYGGSFSGYYWSWIRQPPGKGLEWIGEIDHSGSTNYNPSLKSRVTISVDTSKNQFSLKLSSVTAADTAVYYCARARGPWSFDPWGQGTLVTVSS
VL: DIQMTQSPSTLSASVGDRVTITCRASQSISSWLAWYQQKPGKAPKLLIYKASSLESGVPSRFSGSGSGTEFTLTISSLQPDDFATYYCQQYQSFPTFGGGTKVEIK
With B6, the binding result in assay [1], in assay [2] and in assay [3] was “binds” throughout.

B7: ADI-29425 (antibody, V domains shown)
VH: QVQLQQWGAGLLKPSETLSLTCAVYGGSFSGYYWSWIRQPPGKGLEWIGEIDHSGSTNYNPSLKSRVTISVDTSKNQFSLKLSSVTAADTAVYYCARARGPWSFDPWGQGTLVTVSS
VL: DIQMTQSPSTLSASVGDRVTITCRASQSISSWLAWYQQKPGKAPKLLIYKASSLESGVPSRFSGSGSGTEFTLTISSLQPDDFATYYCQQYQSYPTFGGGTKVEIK
For the molecule B7, the binding result in assay [1], in assay [2] and in assay [3] was “binds” each time.

B8: ADI-29404 (antibody, V domains shown)
VH: QVQLQQWGAGLLKPSETLSLTCAVYGGSFSGYYWSWIRQPPGKGLEWIGEIDHSGSTNYNPSLKSRVTISVDTSKNQFSLKLSSVTAADTAVYYCARARGPWSFDPWGQGTLVTVSS
VL: DIQMTQSPSTLSASVGDRVTITCRASQSISSWLAWYQQKPGKAPKLLIYKASSLESGVPSRFSGSGSGTEFTLTISSLQPDDFATYYCEQYDSYPTFGGGTKVEIK
notes: also called F04
Turning to B8, the binding result in assay [1], in assay [2] and in assay [3] was “binds” throughout.

B9: ADI-29399 (antibody, V domains shown)
VH: QVQLQQWGAGLLKPSETLSLTCAVYGGSFSGYYWSWIRQPPGKGLEWIGEIDHSGSTNYNPSLKSRVTISVDTSKNQFSLKLSSVTAADTAVYYCARARGPWSFDPWGQGTLVTVSS
VL: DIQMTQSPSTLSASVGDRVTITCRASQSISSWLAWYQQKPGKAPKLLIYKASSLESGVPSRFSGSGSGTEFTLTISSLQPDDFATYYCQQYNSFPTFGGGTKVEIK
As for B9, the binding result in assay [1], in assay [2] and in assay [3] was “binds” in each case.

B10: ADI-27741 (antibody, V domains shown)
VH: QVQLQQWGAGLLKPSETLSLTCAVYGGSFSGYYWSWIRQPPGKGLEWIGEIDHSGSTNYNPSLKSRVTISVDTSKNQFSLKLSSVTAADTAVYYCARARGPWSFDPWGQGTLVTVSS
VL: DIQMTQSPSTLSASVGDRVTITCRASQSIGSWLAWYQQKPGKAPKLLIYKASSLESGVPSRFSGSGSGTEFTLTISSLQPDDFATYYCQQSNSYYTFGGGTKVEIK
Regarding B10, the binding result in assay [1], in assay [2] and in assay [3] was “binds” in each case.

B11: ADI-29424 (antibody, V domains shown)
VH: QVQLQQWGAGLLKPSETLSLTCAVYGGSFSGYYWSWIRQPPGKGLEWIGEIDHSGSTNYNPSLKSRVTISVDTSKNQFSLKLSSVTAADTAVYYCARARGPWSFDPWGQGTLVTVSS
VL: DIQMTQSPSTLSASVGDRVTITCRASQSISSWLAWYQQKPGKAPKLLIYKASSLESGVPSRFSGSGSGTEFTLTISSLQPDDFATYYCQQYDSFITFGGGTKVEIK
On to B11, for which the binding result in assay [1], in assay [2] and in assay [3] was “binds” throughout.

B12: ADI-29405 (antibody, V domains shown)
VH: QVQLQQWGAGLLKPSETLSLTCAVYGGSFSGYYWSWIRQPPGKGLEWIGEIDHSGSTNYNPSLKSRVTISVDTSKNQFSLKLSSVTAADTAVYYCARARGPWSFDPWGQGTLVTVSS
VL: DIQMTQSPSTLSASVGDRVTITCRASQSISSWLAWYQQKPGKAPKLLIYKASSLESGVPSRFSGSGSGTEFTLTISSLQPDDFATYYCQQYGSFPTFGGGTKVEIK
Consider B12, for which the binding result in assay [1], in assay [2] and in assay [3] was “binds” in each case.

B13: ADI-29421 (antibody, V domains shown)
VH: QVQLQQWGAGLLKPSETLSLTCAVYGGSFSGYYWSWIRQPPGKGLEWIGEIDHSGSTNYNPSLKSRVTISVDTSKNQFSLKLSSVTAADTAVYYCARARGPWSFDPWGQGTLVTVSS
VL: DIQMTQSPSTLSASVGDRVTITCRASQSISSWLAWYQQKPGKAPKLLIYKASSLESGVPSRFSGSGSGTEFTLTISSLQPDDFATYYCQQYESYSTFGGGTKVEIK
As to B13, the binding result in assay [1], in assay [2] and in assay [3] was “binds” in each case.

B14: ADI-29401 (antibody, V domains shown)
VH: QVQLQQWGAGLLKPSETLSLTCAVYGGSFSGYYWSWIRQPPGKGLEWIGEIDHSGSTNYNPSLKSRVTISVDTSKNQFSLKLSSVTAADTAVYYCARARGPWSFDPWGQGTLVTVSS
VL: DIQMTQSPSTLSASVGDRVTITCRASQSIGSWLAWYQQKPGKAPKLLIYKASSLESGVPSRFSGSGSGTEFTLTISSLQPDDFATYYCQQYDIYPTFGGGTKVEIK
B14: the binding result in assay [1], in assay [2] and in assay [3] was “binds” in each case.

B15: ADI-27740 (antibody, V domains shown)
VH: QVQLQQWGAGLLKPSETLSLTCAVYGGSFSGYYWSWIRQPPGKGLEWIGEIDHSGSTNYNPSLKSRVTISVDTSKNQFSLKLSSVTAADTAVYYCARARGPWSFDPWGQGTLVTVSS
VL: DIQMTQSPSTLSASVGDRVTITCRASQSIGSWLAWYQQKPGKAPKLLIYKASSLESGVPSRFSGSGSGTEFTLTISSLQPDDFATYYCQQYHSFYTFGGGTKVEIK
notes: also called A40
Turning to B15, the binding result in assay [1], in assay [2] and in assay [3] was “binds” in each case.

B16: ADI-28226 (antibody, V domains shown)
VH: QVQLQQWGAGLLKPSETLSLTCAVYGGSFSGYYWSWIRQPPGKGLEWIGEIDHSGSTNYNPSLKSRVTISVDTSKNQFSLKLSSVTAADTAVYYCARARGPWSFDPWGQGTLVTVSS
VL: DIQMTQSPSTLSASVGDRVTITCRASQSISSWLAWYQQKPGKAPKLLIYKASSLESGVPSRFSGSGSGTEFTLTISSLQPDDFATYYCQQYGSFPITFGGGTKVEIK
notes: also called C26
B16: the binding result in assay [1], in assay [2] and in assay [3] was “binds” each time.

B17: ADI-27743 (antibody, V domains shown)
VH: QVQLQQWGAGLLKPSETLSLTCAVYGGSFSGYYWSWIRQPPGKGLEWIGEIDHSGSTNYNPSLKSRVTISVDTSKNQFSLKLSSVTAADTAVYYCARARGPWSFDPWGQGTLVTVSS
VL: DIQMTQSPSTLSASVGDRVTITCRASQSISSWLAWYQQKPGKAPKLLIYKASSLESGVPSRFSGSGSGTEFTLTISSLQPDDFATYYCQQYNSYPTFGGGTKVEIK
B17: the binding result in assay [1], in assay [2] and in assay [3] was “binds” each time.

B18: ADI-29443 (antibody, V domains shown)
VH: QLQLQESGPGLVKPSETLSLTCTVSGGSISSSSYYWGWIRQPPGKGLEWIGSIYYSGSTYYNPSLKSRVTISVDTSKNQFSLKLSSVTAADTAVYYCARGSDRFHPYFDYWGQGTLVTVSS
VL: EIVLTQSPATLSLSPGERATLSCRASQSVSRYLAWYQQKPGQAPRLLIYDASNRATGIPARFSGSGSGTDFTLTISSLEPEDFAVYYCQQFDTWPPTFGGGTKVEIK
notes: also called F43
B18: the binding result in assay [2] and in assay [3] was “binds” each time.
